According to paper PMC3072391:
Read-outs that look alike come from different tables or passages of the source.

Columns and labels:
[1] = molecular target: NS5BΔ21-5a fused to cyan or citrine fluorescent protein (hepatitis C virus genotype 5a (patient isolate)); experiment: FRET or BRET; in vitro; purified NS5BΔ21-cyan and NS5BΔ21-citrine of the same genotype mixed equimolar, 50 nM each; 10 mM NaCl and 4.5 mM Mg(CH3COO)2; excitation 432 nm, FRET ratio = emission 530 nm/478 nm, normalised against NS5BΔ21-1b; twelve independent experiments
[2] = molecular target: NS5BΔ21-5a fused to cyan or citrine fluorescent protein (hepatitis C virus genotype 5a (patient isolate)); experiment: as above; remark: listed apart in the source

**Q.** Which results are given for “NS5BΔ21-5a fused to cyan or citrine fluorescent protein (enzyme)”?
**A.** FRET ratio relative to NS5BΔ21-1b [1]: < 50%; FRET ratio relative to NS5BΔ21-1b [2]: 40%
